Measured values from US20250346679A1 (INVOX PHARMA, published 2025).
Each block holds one binder with its values, some of them ahead of it.

Columns and labels:
[1] = molecular target: T1, cynomolgus CD137, cell-surface (cynomolgus, UniProt Q07011 24-255 (human entry)); experiment: cell-based or functional assay
T1 chain: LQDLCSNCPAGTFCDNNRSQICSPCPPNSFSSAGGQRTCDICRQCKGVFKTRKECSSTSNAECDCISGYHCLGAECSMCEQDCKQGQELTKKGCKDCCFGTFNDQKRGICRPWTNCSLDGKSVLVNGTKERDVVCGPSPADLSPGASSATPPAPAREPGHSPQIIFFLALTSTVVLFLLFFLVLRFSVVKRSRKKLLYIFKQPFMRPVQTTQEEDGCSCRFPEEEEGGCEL

[2] = molecular target: human CD137, cell-surface (human, UniProt Q07011 24-255); experiment: cell-based or functional assay
[3] = molecular target: human PD-L1, cell-surface (human, UniProt Q9NZQ7 19-290); experiment: cell-based or functional assay
human PD-L1, cell-surface, sequence (Q9NZQ7 19-290): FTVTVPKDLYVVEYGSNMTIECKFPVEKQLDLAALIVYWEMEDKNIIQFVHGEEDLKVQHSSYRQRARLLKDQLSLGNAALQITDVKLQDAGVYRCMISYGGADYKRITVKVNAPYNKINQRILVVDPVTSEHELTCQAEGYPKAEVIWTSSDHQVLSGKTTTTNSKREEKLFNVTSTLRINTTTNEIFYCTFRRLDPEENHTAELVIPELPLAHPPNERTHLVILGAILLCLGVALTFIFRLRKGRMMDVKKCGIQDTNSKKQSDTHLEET

[4] = molecular target: T2, hCD137-mFc-Avi (human; mouse, UniProt Q07011 24-186, biotin on the Avi sequence where the biotinylated form was used); experiment: flow cytometry of yeast clones with 10 nM dimeric human antigen
T2 construct: also called human CD137-mFc-Avi; dimeric human CD137; not shown: mouse IgG2a Fc domain (mIgG2a Fc)
T2 sequence (Q07011 24-186): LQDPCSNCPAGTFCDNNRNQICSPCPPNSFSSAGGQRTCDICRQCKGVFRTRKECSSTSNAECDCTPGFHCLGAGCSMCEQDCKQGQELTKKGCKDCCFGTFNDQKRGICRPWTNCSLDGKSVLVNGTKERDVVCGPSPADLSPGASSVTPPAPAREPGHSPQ

EC50 (nM) (crosslinked), mIL-2 release, DO11.10.cCD137 with HEK.cyPD-L1 [1]: 0.07 nM
Emax (pg/ml) (crosslinked), mIL-2 release, DO11.10.cCD137 with HEK.cyPD-L1 [1]: 9660 pg/mL
EC50 (nM), hIL-2 release, CD8+ T cells, donor 171115A, HEK.hPD-L1 XL [2]: 0.13 nM
EC50 (nM), hIL-2 release, CD8+ T cells, donor 171115A, MDA-MB-231 XL [2]: 0.02 nM
EC50 (nM), hIL-2 release, CD8+ T cells, donor 171115B, HEK.hPD-L1 XL [2]: 0.12 nM
EC50 (nM), hIL-2 release, CD8+ T cells, donor 171115B, MDA-MB-231 XL [2]: 0.02 nM
B1: FS22-053-008-AA/G12v2 (bispecific antibody, human IgG1, kappa, L234A L235A)
heavy: EVQLVQSGAEVKRPGASVKVSCKASGYTFTSYGISWVRQAPGQGLEWMGWISAYSGGTNYAQKLQGRVTMTTDTSTSTAYMELRSLRSDDTAVYYCARDLFPTIFGVSYYYYWGQGTLVTVSSASTKGPSVFPLAPSSKSTSGGTAALGCLVKDYFPEPVTVSWNSGALTSGVHTFPAVLQSSGLYSLSSVVTVPSSSLGTQTYICNVNHKPSNTKVDKKVEPKSCDKTHTCPPCPAPEAAGGPSVFLFPPKPKDTLMISRTPEVTCVVVDVSHEDPEVKFNWYVDGVEVHNAKTKPREEQYNSTYRVVSVLTVLHQDWLNGKEYKCKVSNKALPAPIEKTISKAKGQPREPQVYTLPPSRDELNPPYLFSNQVSLTCLVKGFYPSDIAVEWESNGQPENNYKTTPPVLDSDGSFFLYSKLTVDYWRWLEGNVFSCSVMHEALHNHYTQKSLSLSPG
light: DIQMTQSPSTLSASVGDRVTITCRASQSISGRLAWYQQKPGKAPNLLIYEASNLESGVPSRFSGSGSGTEFTLTISSLQPEDFATYYCQQSYSWPRTFGQGTKVEIKRTVAAPSVFIFPPSDEQLKSGTASVVCLLNNFYPREAKVQWKVDNALQSGNSQESVTEQDSKDSTYSLSSTLTLSKADYEKHKVYACEVTHQGLSSPVTKSFNRGEC

EC50 (nM) (crosslinked), mIL-2 release, DO11.10.cCD137 with HEK.cyPD-L1 [1]: 0.11 nM
Emax (pg/ml) (crosslinked), mIL-2 release, DO11.10.cCD137 with HEK.cyPD-L1 [1]: 9360 pg/mL
EC50 (nM), hIL-2 release, CD8+ T cells, donor 171115A, HEK.hPD-L1 XL [2]: 0.11 nM
EC50 (nM), hIL-2 release, CD8+ T cells, donor 171115A, MDA-MB-231 XL [2]: 0.01 nM
EC50 (nM), hIL-2 release, CD8+ T cells, donor 171115B, HEK.hPD-L1 XL [2]: 0.12 nM
EC50 (nM), hIL-2 release, CD8+ T cells, donor 171115B, MDA-MB-231 XL [2]: 0.01 nM
EC50 (nM), IFN-γ release, human MLR [3]: 0.04 nM
Emax (pg/ml), IFN-γ release, human MLR [3]: 3330 pg/mL
B2: FS22-053-017-AA/E12v2 (bispecific antibody, human IgG1, kappa, L234A L235A)
heavy: EVQLVQSGAEVKRPGASVKVSCKASGYPFTSYGISWVRQAPGQGLEWMGWISAYSGGTNYAQKLQGRVTMTTDTSTSTAYMELRSLRSDDTAVYYCARDLFPTIFGVSYYYYWGQGTLVTVSSASTKGPSVFPLAPSSKSTSGGTAALGCLVKDYFPEPVTVSWNSGALTSGVHTFPAVLQSSGLYSLSSVVTVPSSSLGTQTYICNVNHKPSNTKVDKKVEPKSCDKTHTCPPCPAPEAAGGPSVFLFPPKPKDTLMISRTPEVTCVVVDVSHEDPEVKFNWYVDGVEVHNAKTKPREEQYNSTYRVVSVLTVLHQDWLNGKEYKCKVSNKALPAPIEKTISKAKGQPREPQVYTLPPSRDELNPPYLFSNQVSLTCLVKGFYPSDIAVEWESNGQPENNYKTTPPVLDSDGSFFLYSKLTVYHWRWLEGNVFSCSVMHEALHNHYTQKSLSLSPG
light: DIQMTQSPSTLSASVRDRVIITCRASQSIGNRLAWYQHKPGKAPKLLIYEASTSETGVPSRFSGSGSGTDFTLTISSLQPEDFATYYCQQSYSTPYTFGQGTKLEIKRTVAAPSVFIFPPSDEQLKSGTASVVCLLNNFYPREAKVQWKVDNALQSGNSQESVTEQDSKDSTYSLSSTLTLSKADYEKHKVYACEVTHQGLSSPVTKSFNRGEC

EC50 (nM) (crosslinked), mIL-2 release, DO11.10.cCD137 with HEK.cyPD-L1 [1]: 0.1 nM
Emax (pg/ml) (crosslinked), mIL-2 release, DO11.10.cCD137 with HEK.cyPD-L1 [1]: 9020 pg/mL
EC50 (nM), hIL-2 release, CD8+ T cells, donor 171115A, HEK.hPD-L1 XL [2]: 0.15 nM
EC50 (nM), hIL-2 release, CD8+ T cells, donor 171115A, MDA-MB-231 XL [2]: 0.01 nM
EC50 (nM), hIL-2 release, CD8+ T cells, donor 171115B, HEK.hPD-L1 XL [2]: 0.12 nM
EC50 (nM), hIL-2 release, CD8+ T cells, donor 171115B, MDA-MB-231 XL [2]: 0.01 nM
B3: FS22-053-017-AA/E05v2 (bispecific antibody, human IgG1, kappa, L234A L235A)
heavy: EVQLVQSGAEVKRPGASVKVSCKASGYTFTSYGISWVRQAPGQGLEWMGWISAYSGGTNYAQKLQGRVTMTTDTSTSTAYMELRSLRSDDTAVYYCARDLFPTIFGVSYYYYWGQGTLVTVSSASTKGPSVFPLAPSSKSTSGGTAALGCLVKDYFPEPVTVSWNSGALTSGVHTFPAVLQSSGLYSLSSVVTVPSSSLGTQTYICNVNHKPSNTKVDKKVEPKSCDKTHTCPPCPAPEAAGGPSVFLFPPKPKDTLMISRTPEVTCVVVDVSHEDPEVKFNWYVDGVEVHNAKTKPREEQYNSTYRVVSVLTVLHQDWLNGKEYKCKVSNKALPAPIEKTISKAKGQPREPQVYTLPPSRDELNPPYLFSNQVSLTCLVKGFYPSDIAVEWESNGQPENNYKTTPPVLDSDGSFFLYSKLTVYHWRWLEGNVFSCSVMHEALHNHYTQKSLSLSPG
light: DIQMTQSPSTLSASVGDRVTITCRASQSISGRLAWYQQKPGKAPNLLIYEASNLESGVPSRFSGSGSGTEFTLTISSLQPEDFATYYCQQSYSTPRVTFGQGTKVEIKRTVAAPSVFIFPPSDEQLKSGTASVVCLLNNFYPREAKVQWKVDNALQSGNSQESVTEQDSKDSTYSLSSTLTLSKADYEKHKVYACEVTHQGLSSPVTKSFNRGEC

EC50 (nM) (crosslinked), mIL-2 release, DO11.10.cCD137 with HEK.cyPD-L1 [1]: 0.08 nM
Emax (pg/ml) (crosslinked), mIL-2 release, DO11.10.cCD137 with HEK.cyPD-L1 [1]: 8930 pg/mL
EC50 (nM), hIL-2 release, CD8+ T cells, donor 171115A, HEK.hPD-L1 XL [2]: 0.1 nM
EC50 (nM), hIL-2 release, CD8+ T cells, donor 171115A, MDA-MB-231 XL [2]: 0.01 nM
EC50 (nM), hIL-2 release, CD8+ T cells, donor 171115B, HEK.hPD-L1 XL [2]: 0.2 nM
EC50 (nM), hIL-2 release, CD8+ T cells, donor 171115B, MDA-MB-231 XL [2]: 0.01 nM
B4: FS22-053-017-AA/G12v2 (bispecific antibody, human IgG1, kappa, L234A L235A)
heavy: EVQLVQSGAEVKRPGASVKVSCKASGYTFTSYGISWVRQAPGQGLEWMGWISAYSGGTNYAQKLQGRVTMTTDTSTSTAYMELRSLRSDDTAVYYCARDLFPTIFGVSYYYYWGQGTLVTVSSASTKGPSVFPLAPSSKSTSGGTAALGCLVKDYFPEPVTVSWNSGALTSGVHTFPAVLQSSGLYSLSSVVTVPSSSLGTQTYICNVNHKPSNTKVDKKVEPKSCDKTHTCPPCPAPEAAGGPSVFLFPPKPKDTLMISRTPEVTCVVVDVSHEDPEVKFNWYVDGVEVHNAKTKPREEQYNSTYRVVSVLTVLHQDWLNGKEYKCKVSNKALPAPIEKTISKAKGQPREPQVYTLPPSRDELNPPYLFSNQVSLTCLVKGFYPSDIAVEWESNGQPENNYKTTPPVLDSDGSFFLYSKLTVYHWRWLEGNVFSCSVMHEALHNHYTQKSLSLSPG
light: DIQMTQSPSTLSASVGDRVTITCRASQSISGRLAWYQQKPGKAPNLLIYEASNLESGVPSRFSGSGSGTEFTLTISSLQPEDFATYYCQQSYSWPRTFGQGTKVEIKRTVAAPSVFIFPPSDEQLKSGTASVVCLLNNFYPREAKVQWKVDNALQSGNSQESVTEQDSKDSTYSLSSTLTLSKADYEKHKVYACEVTHQGLSSPVTKSFNRGEC

% APC positive cells [4]: > 10%
B5: FS22-172-004 Fcab clone displayed on yeast (designed binder)
chain: GQPREPQVYTLPPSRDELNYIYPPYNQVSLTCLVKGFYPSDIAVEWESNGQPENNYKTTPPVLDSDGSFFLYSKLTVGADRWLEGNVFSCSVMHEALHNHYTQKSLSLSPG

% APC positive cells [4]: > 30%
B6: FS22-053-010 Fcab clone displayed on yeast (designed binder)
chain: GQPREPQVYTLPPSRDELNPPYLFSNQVSLTCLVKGFYPSDIAVEWESNGQPENNYKTTPPVLDSDGSFFLYSKLTVDYMRWLDGNVFSCSVMHEALHNHYTQKSLSLSPG
notes: yeast display clone, FS22-053 EF library

% APC positive cells [4]: > 30%
B7: FS22-053-011 Fcab clone displayed on yeast (designed binder)
chain: GQPREPQVYTLPPSRDELNPPYLFSNQVSLTCLVKGFYPSDIAVEWESNGQPENNYKTTPPVLDSDGSFFLYSKLTVDYWRWTDGNVFSCSVMHEALHNHYTQKSLSLSPG
notes: as for B6

% APC positive cells [4]: > 10%
B8: FS22-172-003 Fcab clone displayed on yeast (designed binder)
chain: GQPREPQVYTLPPSRDELPYIIPPYNQVSLTCLVKGFYPSDIAVEWESNGQPENNYKTTPPVLDSDGSFFLYSKLTVGADRWLEGNVFSCSVMHEALHNHYTQKSLSLSPG

% APC positive cells [4]: > 10%
B9: FS22-172-002 Fcab clone displayed on yeast (designed binder)
chain: GQPREPQVYTLPPSRDELPFQMPPYNQVSLTCLVKGFYPSDIAVEWESNGQPENNYKTTPPVLDSDGSFFLYSKLTVGADRWLEGNVFSCSVMHEALHNHYTQKSLSLSPG

% APC positive cells [4]: > 10%
B10: FS22-172-006 Fcab clone displayed on yeast (designed binder)
chain: GQPREPQVYTLPPSRDELRKYYPPYNQLSLTCLVKGFYPSDIAVEWESNGQPENNYKTTPPVLDSDGSFFLYSKLTVGADRWLEGNVFSCSVMHEALHNHYTQKSLSLSPG

% APC positive cells [4]: > 10%
B11: FS22-172-005 Fcab clone displayed on yeast (designed binder)
chain: GQPREPQVYTLPPSRDELQQVYPPYNQVSLTCLVKGFYPSDIAVEWESNGQPENNYKTTPPVLDSDGSFFLYSKLTVGADRWLEGNVFSCSVMHEALHNHYTQKSLSLSPG

% APC positive cells [4]: > 30%
B12: FS22-053-008 Fcab clone displayed on yeast (designed binder)
chain: GQPREPQVYTLPPSRDELNPPYLFSNQVSLTCLVKGFYPSDIAVEWESNGQPENNYKTTPPVLDSDGSFFLYSKLTVDYWRWLEGNVFSCSVMHEALHNHYTQKSLSLSPG
notes: as for B6

% APC positive cells [4]: > 10%
B13: FS22-172-001 Fcab clone displayed on yeast (designed binder)
chain: GQPREPQVYTLPPSRDELPFVMPPYNQVSLTCLVKGFYPSDIAVEWESNGQPENNYKTTPPVLDSDGSFFLYSKLTVGADRWLEGNVFSCSVMHEALHNHYTQKSLSLSPG

% APC positive cells [4]: > 30%
B14: FS22-053-012 Fcab clone displayed on yeast (designed binder)
chain: GQPREPQVYTLPPSRDELNPPYLFSNQVSLTCLVKGFYPSDIAVEWESNGQPENNYKTTPPVLDSDGSFFLYSKLTVDHMRWLEGNVFSCSVMHEALHNHYTQKSLSLSPG
notes: as for B6

% APC positive cells [4]: > 30%
B15: FS22-053-009 Fcab clone displayed on yeast (designed binder)
chain: GQPREPQVYTLPPSRDELNPPYLFSNQVSLTCLVKGFYPSDIAVEWESNGQPENNYKTTPPVLDSDGSFFLYSKLTVEHTRWLDGNVFSCSVMHEALHNHYTQKSLSLSPG
notes: as for B6
